Test results as given in US20230051715A1 (MABWELL THERAPEUTICS, published 2023).

Columns and labels:
[1] = target: T1, full-length mouse C1s (produced in house) (mouse, UniProt Q8CG14 16-688); test: ELISA, plate coated with 200 ng/well MoC1s, OD450nm
T1 construct: Called full-length; also called MoC1s; moC1s
T1 sequence: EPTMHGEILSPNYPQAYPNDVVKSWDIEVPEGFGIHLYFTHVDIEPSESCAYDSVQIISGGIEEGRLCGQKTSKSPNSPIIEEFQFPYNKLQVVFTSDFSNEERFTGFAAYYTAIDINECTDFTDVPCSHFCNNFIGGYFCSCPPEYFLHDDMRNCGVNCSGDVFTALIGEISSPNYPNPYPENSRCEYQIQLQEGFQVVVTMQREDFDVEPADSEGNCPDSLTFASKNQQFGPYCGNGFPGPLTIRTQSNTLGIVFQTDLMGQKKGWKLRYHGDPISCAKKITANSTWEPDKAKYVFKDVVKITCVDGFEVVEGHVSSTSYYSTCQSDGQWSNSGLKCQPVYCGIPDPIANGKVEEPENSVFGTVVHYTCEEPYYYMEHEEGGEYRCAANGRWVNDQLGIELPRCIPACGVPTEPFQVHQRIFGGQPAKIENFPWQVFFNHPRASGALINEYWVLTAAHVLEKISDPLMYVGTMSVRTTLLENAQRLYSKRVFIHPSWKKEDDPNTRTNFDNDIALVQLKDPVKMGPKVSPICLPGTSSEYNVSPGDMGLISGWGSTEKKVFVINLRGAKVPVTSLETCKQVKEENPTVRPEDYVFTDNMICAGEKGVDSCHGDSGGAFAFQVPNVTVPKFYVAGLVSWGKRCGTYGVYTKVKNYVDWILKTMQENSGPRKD
Experimental: (§1) The next morning, plates were blocked with SuperBlock T20 blocking buffer (Thermo Scientific 37536) for 1 h with gentle shaking. Then, various concentrations of anti-C1s antibodies diluted in SuperBlock T20 blocking buffer were added to the plates and incubated for 1 h with gentle shaking. Mouse IgG (Sigma-Aldrich I5381) and Human IgG1 (BioXCell BP0297) were used as negative controls. The plates were washed before incubating with HRP conjugated secondary antibodies diluted in SuperBlock T20 blocking buffer (goat anti-mouse IgG (H+L) cross-adsorbed secondary antibody HRP (Invitrogen G-21040) or goat anti-human IgG antibody, HRP conjugate (Millipore AP309P)) for 1 h with gentle shaking. At last, the plates were washed and color developed with ELISA liquid substrate (Sigma-Aldrich), followed by stopping the reaction with addition of the same volume of […] 1M H₂SO₄. Bound antibody was measured by absorbance at OD₄₅₀ₙₘ.

[2] = target: T2, rat C1s (produced in house) (rat, UniProt Q6P6T1 16-688); test: ELISA, plate coated with 200 ng/well RatC1s, OD450nm
T2 construct: also called RaC1s
T2 sequence: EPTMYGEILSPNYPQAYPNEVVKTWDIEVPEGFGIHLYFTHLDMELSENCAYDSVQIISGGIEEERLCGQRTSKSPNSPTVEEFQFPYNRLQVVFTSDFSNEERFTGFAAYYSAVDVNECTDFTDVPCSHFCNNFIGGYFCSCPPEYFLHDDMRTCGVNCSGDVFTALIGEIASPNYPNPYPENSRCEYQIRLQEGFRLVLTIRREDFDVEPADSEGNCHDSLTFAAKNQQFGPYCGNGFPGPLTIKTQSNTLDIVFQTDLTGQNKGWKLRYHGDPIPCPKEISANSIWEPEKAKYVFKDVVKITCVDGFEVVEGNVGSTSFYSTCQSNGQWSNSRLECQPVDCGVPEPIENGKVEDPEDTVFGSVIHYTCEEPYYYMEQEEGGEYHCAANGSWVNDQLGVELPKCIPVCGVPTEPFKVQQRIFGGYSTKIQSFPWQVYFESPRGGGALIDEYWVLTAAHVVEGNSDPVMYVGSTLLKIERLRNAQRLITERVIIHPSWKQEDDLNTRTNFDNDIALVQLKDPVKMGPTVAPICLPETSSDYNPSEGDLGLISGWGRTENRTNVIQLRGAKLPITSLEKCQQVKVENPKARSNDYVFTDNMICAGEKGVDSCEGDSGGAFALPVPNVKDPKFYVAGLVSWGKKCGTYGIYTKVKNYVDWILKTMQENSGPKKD
Experimental: as §1

Binder | binding result [1] | binding result [2] | EC50 [2] [µg/mL]
Anti-C1s antibody 2-7 (antibody, human IgG1, kappa, V domains shown, the HC/LC entries may hold it too; also called clone 2-7) VH: EVKLEESGGGLVPPGGSMKLSCVASGFTFSNYFMNWVRQSPEKGLEWVAEIRLKFTNYATHYAESVEGRFTISRDDSKSSVYLQMNNLRAEDTGIYYCTRDYGSRNGYFDYWGQGTTLTVSS VL: DIVMTQAAPSVPVTPGESVSISCRSSKSLLHSNGNTFLYWFLQRPGQSPQLLIYRMSNLASGVPDRFSGSGSGTAFTLRVSRVEAEDVGIYYCMQHLEYPYTFGGGTKLEIKT | no binding (tested: 1000 ng/ml (Log 3)) | no binding (tested: 1000 ng/ml (Log 3)) | 
Anti-C1s antibody 2-8 (antibody, V domains shown, the HC/LC entries may hold it too; also called clone 2-8) VH: EVQLQQSGAELVRPGALVKLSCKASGFNIKEYYMHWVKQRPEQGLEWIGWIDPENGDTIYDPKFQGKASITADTSSNTAYLQLSSLTSEDTAVYYCARSRLFFAYWGQGTLVTVSA VL: DIVMTQSHKFMSTSVGDRVSFTCKASQDVRTAVDWYQQKPGQSPKLLIYSASYRYTGVPDRFTGTGSGTDFTFTISSVQAEDLAVYFCQQQYTTPYTFGGGTKLEIKT | no binding (tested: 1000 ng/ml (Log 3)) |  | 0.063
Anti-C1s antibody hz2-7(H1L2) (antibody, V domains shown, Humanized, human IgG1 / kappa; also called hz2-7(1L2)) VH: EVQLLESGGGLVQPGGSLRLSCAASGFTFSNYFMNWVRQAPGKGLEWVSEIRLKFTNYATHYADSVKGRFTISRDDSKSTLYLQMNSLRAEDTAVYYCTRDYGSRNGYFDYWGQGTLVTVSS VL: DIVMTQTPLSLPVTPGEPASISCRSSKSLLHSNGNTFLYWFLQKPGQSPQLLIYRMSNLASGVPDRFSGSGSGTDFTLKISRVEAEDVGVYYCMQHLEYPYTFGGGTKLEIKR | no binding (tested: 1000 ng/ml (Log 3)) | no binding (tested: 1000 ng/ml (Log 3)) | 
Anti-C1s antibody hz2-8 (H1L2 G80A/T82A) (antibody, V domains shown, Humanized variant with G80A and T82A in HC CDR2 (already in the entry), human IgG1 / kappa) VH: QVQLVQSGAEVKKPGASVKVSCKASGFNIKEYYMHWVRQAPEQGLEWMGWIDPENADAIYAQKFQGRVTITADTSTNTAYMELSSLRSEDTAVYYCARSRLFFAYWGQGTLVTVSS VL: DIQMTQSPKSLSASVGDRVTITCRASQDVRTALDWYQQKPGQSPKLLIYSASYRYSGVPSRFSGSGSGTDFTLTISSLQPEDFATYYCQQQYTTPYTFGQGTKLEIKR | no binding (tested: 1000 ng/ml (Log 3)) |  | 0.105
